Data reported in patent US20220402995A1 (TOSOH, published 2022).
Positions count from the first letter of the chain named.

B1: AAV-binding protein No. 1 (Asn324Asp) (receptor)
chain: MGSAGESVQITLPKDEVQLNAYVLQEPPKGETYTYDWQLITHPRDYSGEMEGKHSQILKLSKLTPGLYEFKVIVEGQNAHGEGYVNVTVKPEPRKNRPPIAIVSPQFQEISLPTTSTVIDGSQSTDDDKIVQYHWEELKGPLREEKISEDTAILKLSKLVPGNYTFSLTVVDSDGATNSTTANLTVNKAVDHHHHHH
B2: AAV-binding protein No. 22 (Leu477Pro) (receptor)
chain: B1 chain with D15N, L168P
B3: AAV-binding protein No. 12 (Ser356Cys) (receptor)
chain: B1 chain with D15N, S47C
B4: AAV-binding protein No. 25 (Asn324Asp, Tyr355His) (receptor)
chain: B1 chain with Y46H
B5: AAV-binding protein No. 8 (His351Leu) (receptor)
chain: B1 chain with D15N, H42L
B6: AAV-binding protein No. 10 (Arg353Cys) (receptor)
chain: B1 chain with D15N, R44C
B7: AAV-binding protein No. 7 (Leu348Pro) (receptor)
chain: B1 chain with D15N, L39P
B8: AAV-binding protein No. 5 (Asp345Asn) (receptor)
chain: B1 chain with D15N, D36N
B9: AAV-binding protein No. 21 (Tyr442Phe) (receptor)
chain: B1 chain with D15N, Y133F
B10: AAV-binding protein No. 13 (Gly357Cys) (receptor)
chain: B1 chain with D15N, G48C
B11: AAV-binding protein No. 23 (Asn487Asp) (receptor)
chain: B1 chain with D15N, N178D
B12: AAV-binding protein No. 24 (Asn492Asp) (receptor)
chain: B1 chain with D15N, N183D
B13: AAV-binding protein No. 6 (Trp346Leu) (receptor)
chain: B1 chain with D15N, W37L
B14: AAV-binding protein No. 20 (Lys399Glu) (receptor)
chain: B1 chain with D15N, K90E
B15: AAV-binding protein No. 15 (Leu367Pro) (receptor)
chain: B1 chain with D15N, L58P
B16: AAV-binding protein No. 17 (Phe379Ser) (receptor)
chain: B1 chain with D15N, F70S
B17: AAV-binding protein No. 19 (Val396Ala) (receptor)
chain: B1 chain with D15N, V87A
B18: AAV-binding protein No. 4 (Tyr344His) (receptor)
chain: B1 chain with D15N, Y35H
B19: AAV-binding protein No. 3 (Lys338Glu) (receptor)
chain: B1 chain with D15N, K29E
B20: AAV-binding protein No. 2 (Tyr331Cys) (receptor)
chain: B1 chain with D15N, Y22C
B21: AAV-binding protein No. 11 (Tyr355Asn) (receptor)
chain: B1 chain with D15N, Y46N
B22: AAV-binding protein No. 18 (Tyr393Cys) (receptor)
chain: B1 chain with D15N, Y84C
B23: AAV-binding protein No. 14 (Gln365Arg) (receptor)
chain: B1 chain with D15N, Q56R

target: T1, VLP2 (virus-like particles of AAV2) (AAV2, UniProt P03135 1-735; P03135 1-598; P03135 1-533); experiment: ELISA on VLP2; binding after 43°C 15 min / untreated
T1 construct: Empty AAV2 capsid; background says about 60 protein molecules, VP1:VP2:VP3 = 1:1:10; Immobilised on the ELISA plate
T1 sequence (P03135 whole entry, chain 1 of 3): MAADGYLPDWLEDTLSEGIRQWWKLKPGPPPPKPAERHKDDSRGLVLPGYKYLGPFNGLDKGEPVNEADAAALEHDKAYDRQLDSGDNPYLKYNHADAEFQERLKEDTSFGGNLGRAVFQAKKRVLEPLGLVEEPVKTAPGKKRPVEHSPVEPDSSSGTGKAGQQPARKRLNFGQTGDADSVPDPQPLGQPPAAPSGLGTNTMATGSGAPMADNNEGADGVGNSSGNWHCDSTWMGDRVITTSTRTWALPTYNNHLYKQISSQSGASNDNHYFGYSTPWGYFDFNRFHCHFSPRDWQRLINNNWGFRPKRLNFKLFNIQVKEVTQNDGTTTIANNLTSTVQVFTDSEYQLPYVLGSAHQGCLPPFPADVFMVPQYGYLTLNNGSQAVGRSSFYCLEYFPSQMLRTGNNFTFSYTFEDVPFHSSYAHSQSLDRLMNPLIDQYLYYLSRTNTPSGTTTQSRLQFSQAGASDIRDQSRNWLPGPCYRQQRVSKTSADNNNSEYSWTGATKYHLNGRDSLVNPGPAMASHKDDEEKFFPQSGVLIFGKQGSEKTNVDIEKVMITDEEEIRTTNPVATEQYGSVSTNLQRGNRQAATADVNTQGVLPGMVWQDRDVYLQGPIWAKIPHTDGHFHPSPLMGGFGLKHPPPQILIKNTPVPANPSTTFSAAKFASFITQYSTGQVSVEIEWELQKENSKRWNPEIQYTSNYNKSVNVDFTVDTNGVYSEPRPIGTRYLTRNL
T1 sequence (P03135 139-735, tags left off, chain 2 of 3): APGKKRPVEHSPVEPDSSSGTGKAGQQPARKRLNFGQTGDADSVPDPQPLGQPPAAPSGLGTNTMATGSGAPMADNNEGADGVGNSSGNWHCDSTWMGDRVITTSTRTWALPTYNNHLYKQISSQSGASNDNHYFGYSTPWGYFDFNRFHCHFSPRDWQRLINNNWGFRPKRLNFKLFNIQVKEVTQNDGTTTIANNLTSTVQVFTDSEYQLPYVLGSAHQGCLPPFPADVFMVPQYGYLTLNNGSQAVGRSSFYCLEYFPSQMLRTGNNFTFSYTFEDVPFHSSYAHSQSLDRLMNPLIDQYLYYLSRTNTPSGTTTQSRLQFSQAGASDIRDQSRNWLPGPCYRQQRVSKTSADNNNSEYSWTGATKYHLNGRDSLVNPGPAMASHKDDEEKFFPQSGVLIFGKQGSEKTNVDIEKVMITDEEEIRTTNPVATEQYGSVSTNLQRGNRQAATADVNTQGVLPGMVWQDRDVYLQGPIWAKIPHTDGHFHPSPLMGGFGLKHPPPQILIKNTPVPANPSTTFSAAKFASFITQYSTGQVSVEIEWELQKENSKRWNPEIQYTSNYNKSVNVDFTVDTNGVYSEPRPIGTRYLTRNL
T1 sequence (P03135 203-735, chain 3 of 3): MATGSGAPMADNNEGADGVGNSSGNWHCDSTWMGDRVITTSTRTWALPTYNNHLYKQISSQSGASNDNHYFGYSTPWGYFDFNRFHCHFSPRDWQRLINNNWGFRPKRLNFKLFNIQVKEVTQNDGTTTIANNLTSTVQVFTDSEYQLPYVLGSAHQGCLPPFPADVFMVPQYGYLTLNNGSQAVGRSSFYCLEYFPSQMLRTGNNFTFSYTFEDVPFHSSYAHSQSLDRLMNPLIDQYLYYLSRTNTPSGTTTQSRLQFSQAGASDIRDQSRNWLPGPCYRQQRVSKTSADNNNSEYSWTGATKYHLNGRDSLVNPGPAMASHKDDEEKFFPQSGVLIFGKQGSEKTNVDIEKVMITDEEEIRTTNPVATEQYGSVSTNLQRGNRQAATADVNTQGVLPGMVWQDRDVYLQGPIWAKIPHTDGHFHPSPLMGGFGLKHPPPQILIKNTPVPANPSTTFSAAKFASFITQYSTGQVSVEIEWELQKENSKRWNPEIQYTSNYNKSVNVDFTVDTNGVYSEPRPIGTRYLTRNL

| Binder | Residual activity [%] |
| --- | --- |
| B1 | 46% |
| B2 | 79.9% |
| B3 | 84.6% |
| B4 | 77.6% |
| B5 | 68.7% |
| B6 | 84.3% |
| B7 | 69.6% |
| B8 | 71.4% |
| B9 | 48.7% |
| B10 | 97% |
| B11 | 58.3% |
| B12 | 63.2% |
| B13 | 85.7% |
| B14 | 63.3% |
| B15 | 56.9% |
| B16 | 80.9% |
| B17 | 62.3% |
| B18 | 88.2% |
| B19 | 52.6% |
| B20 | 73.4% |
| B21 | 80.6% |
| B22 | 86.4% |
| B23 | 57.7% |
